Values quoted from earlier work, collected in publication PMC4860049.

Biological target: CHMP5 (Homo sapiens) (UniProt Q9NZZ3)
Sequence of UniProt Q9NZZ3 (Q9NZZ3 whole entry): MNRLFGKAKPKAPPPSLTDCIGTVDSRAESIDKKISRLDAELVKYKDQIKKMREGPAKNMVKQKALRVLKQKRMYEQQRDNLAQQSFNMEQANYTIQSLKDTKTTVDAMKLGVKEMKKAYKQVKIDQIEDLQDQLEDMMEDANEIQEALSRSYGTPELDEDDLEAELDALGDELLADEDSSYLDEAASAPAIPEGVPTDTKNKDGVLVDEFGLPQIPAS

For LIP5 MIT2 (from UniProt Q9NP79), the Kd is given as 3 nM.
